The values below come from patent US20170168078A1 (EISAI R AND D MANAGEMENT, published 2017).

In test [1] the target is T1, human FRα expressed on CHO cells (GPI-linked) (human, UniProt P15328 25-234).
T1 construct: CHO/CHOK1 cells stably expressing GPI-linked human FRα; They were used intact in flow cytometry and as nonreduced whole cell lysates in the western blots; also called native FRα; CHO-FRα
As to the kind of experiment: flow cytometry on CHO cells expressing FRα, antibody 1 µg/mL, FITC secondary. The procedure: Flow cytometry studies were conducted to assess the ability of selected FRα-specific antibodies to bind to the native protein. For these studies Chinese hamster ovary (CHO) cells expressing FRα, were harvested, washed, and re-suspended in ice-cold growth media (RPMI supplemented with 10% FBS). Cells were incubated for 1 hour on ice with 9F3, 19D4, 24F12, or 26B3 (1 μg/mL), washed and then incubated with FITC-conjugated secondary antibodies [dilution 1:100] (Southern Biotech, Birmingham, Ala.). Prior to analysis, cells were labeled with 7-amino-actinomycin D (7-AAD) (BD Biosciences, Franklin Lakes, N.J.) for the exclusion of nonviable cells. CHO cells not expressing FRα were also subjected to the same experimental procedures, as a negative control. Cells were analyzed on an […]™ Flow Cytometer (GUAVA® Technologies, Hayward, Calif.). The data provided in Table 4 indicate that all four antibodies are capable of binding native FRα.
For orientation: A flow cytometer gives signals particle by particle.

Test [2] deals with T2, purified recombinant human FRβ.
T2 construct: also called human folate receptor beta (purified, secreted form)
In words: western blot of 0.5 µg purified protein per lane, reduced and nonreduced, SDS-PAGE. The procedure:
(§1) Experiments were conducted to determine whether any of the FRα-specific antibodies, described above, could recognize denatured forms of FRα. […] Lysates were pre-cleared by centrifugation at 13,000 rpm for 15 minutes to remove debris. For reduced and denatured samples, equal amounts of protein (20 μg) were boiled for 10 minutes in NUPAGE® LDS sample buffer (Invitrogen) containing 5% β-mercaptoethanol+40 mM DTT. […] The membrane was blocked in PBST+ 5% non-fat milk for lh at room temperature after which time, the membrane was washed twice with PBST. Immunoblotting was conducted using purified mouse monoclonal antibodies 9F3, 19D4, 24F12, or 26B3 (1 μg/mL) specific for FRα, which were detected with a goat-anti-mouse HRP-conjugated antibody and visualized using SUPERSIGNAL™ West Pico chemiluminescent substrate (Pierce, Rockford, Ill.). Luminescence was visualized using the Omega 12iC molecular imaging system (Ultra-Lum, Claremont, Calif.) with image analysis performed using ULTRAQUANT™ 6.0 software (Ultra-Lum).
(§2) Western blot analyses were also performed using purified folate receptor preparations. For these experiments, 0.5 μg of purified human FRα, β, Γ or Δ, produced as described in Example 1, were incubated in 1× SDS-PAGE sample loading buffer (Invitrogen) with or without 20 mM DTT, boiled for 10 min, and electrophoresed on 4-12% gradient SDS-PAGE gels. Protein was transferred to PVDF membrane and blots probed as described above. Gels were run using Benchmark™ prestained protein ladder (NOVEX®). Gels using purified recombinant FR proteins were also visualized via silverstaining to ensure equal amounts of protein were loaded.

Test [3] addresses T3, purified recombinant human FRΓ.
T3 construct: also called human folate receptor gamma (purified)
The test is described as above. The procedure: as §1, §2

Test [4] concerns the target T4, purified recombinant human folate receptor alpha (rh-FRα) (human, UniProt P15328 25-234).
T4 construct: One is secreted from CHO cells, with a human Ig kappa leader and a C-terminal 6x His tag replacing the GPI attachment site; The other is from Sf9 cells, with an N-terminal 6x His tag and the GPI site intact; also called FR-alpha; FOLR1
In words: SPR, BIACORE T100, antibody captured on anti-mouse IgG, rh-FRα 1-30 nM as analyte, single-cycle kinetics, 1:1 fit. The procedure: Binding characteristics of the purified monoclonal antibodies to FRα were determined by surface plasmon resonance (SPR) experiments. All of the SPR experiments were performed at 25° C. using a BIACORE™ T100 with research grade CM5 chips (GE Healthcare), as specified by the manufacturer. Initially, anti-mouse IgG provided in the mouse antibody capture kit (GE Healthcare) was immobilized by amide coupling to CM5 sensor chips. Mouse anti-FRα monoclonal antibodies (26B3, 24F12, 19D4, or 9F3) were captured on individual flow cells per binding cycle, while the fourth flow cell was used as a reference. Binding experiments were performed with HBS-P (GE Healthcare) as running buffer and at a flow rate of 30 μL/min. Each monoclonal antibody sample (0.5 μg/mL) was injected for 3 minutes to capture the antibody. Various concentrations of purified recombinant human FRα (rh-FRα) (1 nM-30 nM) were then injected over the FRα-specific and reference surfaces for 3 minutes to record binding sensograms using a single-cycle kinetics method. The dissociation profile was monitored for 25 minutes. In between bindings, the surface was regenerated with a 30 μl injection of 10 mM glycine (pH 1.7). The sensograms were processed and fitted to a 1:1 Langmuir binding model using BIACORE™ T100 evaluation software (version 2.0.1).
(Surface plasmon resonance follows binding to a sensor surface in real time, without labels.)

The target of test [5] is T5, human folate receptor beta (FRβ) expressed on CHO cells (human, UniProt P14207 17-230).
T5 construct: whole, on cells; also called CHO-FRβ
As to the kind of experiment: western blot of nonreduced whole cell lysates of CHO cells, SDS-PAGE.

T1 sequence (P15328 25-234 limits assumed): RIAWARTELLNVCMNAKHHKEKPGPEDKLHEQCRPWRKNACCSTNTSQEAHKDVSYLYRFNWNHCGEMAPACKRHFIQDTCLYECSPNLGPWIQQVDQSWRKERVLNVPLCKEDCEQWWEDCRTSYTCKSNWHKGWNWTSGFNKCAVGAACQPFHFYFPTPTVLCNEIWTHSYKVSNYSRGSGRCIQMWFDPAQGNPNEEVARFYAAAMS
T4 sequence (P15328 25-234 limits assumed): as above
T5 sequence (P14207 17-230): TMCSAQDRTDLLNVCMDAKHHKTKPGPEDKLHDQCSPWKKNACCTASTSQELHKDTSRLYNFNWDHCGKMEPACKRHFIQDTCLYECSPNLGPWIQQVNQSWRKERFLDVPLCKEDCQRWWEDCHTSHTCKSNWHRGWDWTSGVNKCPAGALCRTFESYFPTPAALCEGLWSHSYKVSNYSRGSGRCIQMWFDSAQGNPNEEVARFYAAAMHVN
T3 sequence (chain, as listed by the source limits assumed): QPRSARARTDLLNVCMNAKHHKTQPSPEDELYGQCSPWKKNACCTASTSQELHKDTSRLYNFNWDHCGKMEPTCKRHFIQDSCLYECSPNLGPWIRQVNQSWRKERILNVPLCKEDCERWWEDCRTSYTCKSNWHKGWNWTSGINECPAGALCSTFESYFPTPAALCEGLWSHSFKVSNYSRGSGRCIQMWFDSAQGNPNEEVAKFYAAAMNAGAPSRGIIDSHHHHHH
T2 sequence (chain, as listed by the source limits assumed): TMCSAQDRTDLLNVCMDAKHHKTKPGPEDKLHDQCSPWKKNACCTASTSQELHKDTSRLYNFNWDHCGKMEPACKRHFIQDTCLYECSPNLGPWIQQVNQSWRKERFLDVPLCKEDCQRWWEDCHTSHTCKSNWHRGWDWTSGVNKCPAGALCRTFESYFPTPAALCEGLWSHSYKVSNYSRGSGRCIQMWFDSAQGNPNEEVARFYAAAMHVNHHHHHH

B1: Monoclonal antibody 19D4.B7 (antibody, mouse IgG2a, V domains shown)
VH: GAELVKPGASVKLSCTASGFNIKHPYMHWVKQRPDQGLEWIGRIDPANGNTKYDPKFQGKATITADTSSNTAYLQLSSLTSEDTAVYYCGREEVADYTMDYWGQGTSVTVSS
VL: PASLAVSLGQRATISCRASESVDTYGNNFIHWYQQKPGQPPKLLIYLASNLESGVPARFSGSGSRTDFTLTIDPVEADDAATYYCQQNNGDPWTFGGGTKLEIKR
notes: It was labelled with Ru (about 13 labels per IgG) when used as the detector in the ECL assays; also called ATCC PTA-11884
The Kd is the equilibrium constant for the complex coming apart. For orientation: koff means the rate constant with which the complex falls apart. Usually kon stands for the second-order rate constant of association. For the molecule B1, the “Geometric Mean” value in test [1] was determined as 1130. The binding result in test [2] is “no binding (tested: 1 µg/mL)”. For the same molecule, in test [3], the binding result was “no binding (tested: 1 µg/mL)”. In test [4], the Kd came to 0.567 nM, the koff came to 0.000242 s⁻¹ and the kon is 427000 M⁻¹ s⁻¹.

B2: Monoclonal antibody 9F3.H9.H3.H3.B5.G2 (antibody, mouse IgG2a, V domains shown)
VH: ESGPGLVRPSQSLSLTCSVTGYSITSGYYWNWIRQFPGSRLEWMGYIKSDGSNNYNPSLKNRISITRDTSKNQFFLKLNSVTTEDTATYFCTREWKAMDYWGQGTSVTVSS
VL: PAIMSASPGEKVTMTCRASSTVSYSYLHWYQQKSGASPQLWIYGTSNLASGVPARFSGSGSGTSYSLTISSVEAEDAATYYCQQYSGYPLTFGAGTKLELKR
notes: also called ATCC PTA-11887
For B2, the “Geometric Mean” value in test [1] worked out at 760. In test [5], the binding result was “no binding (tested: 1 µg/mL)”. Further, in test [2], the binding result was “no binding (tested: 1 µg/mL)”. Moreover, in test [4], the Kd is 0.715 nM, the koff was found to be 0.00031 s⁻¹ and the kon came out at 434000 M⁻¹ s⁻¹.

B3: Monoclonal antibody 24F12.B1 (antibody, mouse IgG1, V domains shown)
VH: SGGGLVRPGGSLKLSCAASGFTFSSYAMSWVRQSPEKRLEWVAEIGSGGSYTYYPDTVTGRFTISRDNAKSTLYLEMSSLRSEDTAIYYCARETTAGYFDYWGQGTTLTVSS
VL: TSSLSASLGDRVTISCSASQGINNFLNWYQQKPDGTVKLLIYYTSSLHSGVPSRFSGSGSGTDYSLTISNLEPEDIAIYYCQHFSKLPWTFGGGTKLEIKR
notes: also called ATCC PTA-11886
Consider B3, for which the “Geometric Mean” value in test [1] was determined as 777. Besides, in test [5], the binding result is “no binding (tested: 1 µg/mL)”. Moreover, the binding result in test [2] is on record as “no binding (tested: 1 µg/mL)”. Moreover, in test [3], the binding result is listed as “no binding (tested: 1 µg/mL)”. For the same molecule, in test [4], the Kd was determined as 0.102 nM, the koff was found to be 3.99e-05 s⁻¹ and the kon was found to be 393000 M⁻¹ s⁻¹.

B4: Monoclonal antibody 26B3.F2 (antibody, mouse IgG1, V domains shown)
VH: GPELVKPGASVKISCKASDYSFTGYFMNWVMQSHGKSLEWIGRIFPYNGDTFYNQKFKGRATLTVDKSSSTAHMELRSLASEDSAVYFCARGTHYFDYWGQGTTLTVSS
VL: PASLSASVGETVTITCRTSENIFSYLAWYQQKQGISPQLLVYNAKTLAEGVPSRFSGSGSGTQFSLKINSLQPEDFGSYYCQHHYAFPWTFGGGSKLEIKR
notes: also called MAb 26B3; ATCC PTA-11885
In the case of B4, the “Geometric Mean” value in test [1] stood at 854. Moreover, the binding result in test [5] is reported as “no binding (tested: 1 µg/mL)”. In addition, the binding result in test [2] is given as “no binding (tested: 1 µg/mL)”. Besides, the binding result in test [3] was “no binding (tested: 1 µg/mL)”. For the same molecule, in test [4], the Kd was determined as 0.0273 nM, the koff came to 1.43e-05 s⁻¹ and the kon turned out to be 524000 M⁻¹ s⁻¹.
